This note sets out measurements from patent US20250250587A1 (published 2025).

This experiment deals with T1, Neo12 (neoantigen; source protein not named) peptide on HLA-A*02:01 (human).
T1 peptide: YLTHRVDVI
The experiment in a line: multimer staining.

B1: Neo12 neoTCR (TCR, V domains shown)
Valpha: QKEVEQDPGPLSVPEGAIVSLNCTYSNSAFQYFMWYRQYSRKGPELLMYTYSSGNKEDGRFTAQVDKSSKYISLFIRDSQPSDSATYLCAMSEDYKLSFGAGTTVTVRA
Vbeta: ETGVTQTPRHLVMGMTNKKSLKCEQHLGHNAMYWYKQSAKKPLELMFVYSLEERVENNSVPSRFSPECPNSSHLFLHLHTLQPEDSALYLCASSQSRGAQQYFGPGTRLTVT
Take B1: the binding result is recorded as “recognises”.
